Reference: PMC9482650, “Quantitative fragmentomics allow affinity mapping of interactomes” (Nature Communications, 2022)

T1: DFNB31_2, Q9P202
T1 sequence (Q9P202 274-371, limits assumed, looked up): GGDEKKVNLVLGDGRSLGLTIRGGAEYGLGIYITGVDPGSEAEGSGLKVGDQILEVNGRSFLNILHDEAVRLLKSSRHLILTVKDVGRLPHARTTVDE

T2: LIN7C, Q9NUP9
T2 sequence (Q9NUP9 88-185, limits assumed, looked up): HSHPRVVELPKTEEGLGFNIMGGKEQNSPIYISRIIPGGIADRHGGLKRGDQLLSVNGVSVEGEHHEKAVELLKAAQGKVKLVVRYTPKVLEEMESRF

T3: MPDZ_3, O75970
T3 sequence (O75970 372-473, limits assumed, looked up): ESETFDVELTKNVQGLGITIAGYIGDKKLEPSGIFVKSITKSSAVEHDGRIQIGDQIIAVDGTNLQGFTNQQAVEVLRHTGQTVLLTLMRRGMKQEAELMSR

T4: MPDZ_7, O75970
T4 sequence (O75970 1146-1253, limits assumed, looked up): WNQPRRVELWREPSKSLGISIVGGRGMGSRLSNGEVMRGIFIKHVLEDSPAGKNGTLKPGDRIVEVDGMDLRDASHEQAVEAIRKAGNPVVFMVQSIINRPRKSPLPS

T5: MPP5, Q8N3R9
T5 sequence (Q8N3R9 251-346, limits assumed, looked up): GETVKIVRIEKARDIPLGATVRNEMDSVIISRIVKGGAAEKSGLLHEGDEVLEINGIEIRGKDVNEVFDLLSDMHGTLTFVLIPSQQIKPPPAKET

T6: NHERF3_2, Q5T2W1
T6 sequence (Q5T2W1 129-225, limits assumed, looked up): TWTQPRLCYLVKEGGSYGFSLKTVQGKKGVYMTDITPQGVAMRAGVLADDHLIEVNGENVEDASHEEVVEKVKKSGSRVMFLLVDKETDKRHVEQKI

T7: PARD6G, Q9BYG4
T7 sequence (Q9BYG4 153-261, limits assumed, looked up): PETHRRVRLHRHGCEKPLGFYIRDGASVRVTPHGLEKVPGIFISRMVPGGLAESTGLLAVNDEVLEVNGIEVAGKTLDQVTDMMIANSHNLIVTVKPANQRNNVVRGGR

T8: PDLIM3, Q53GG5
T8 sequence (Q53GG5 1-94, limits assumed, looked up): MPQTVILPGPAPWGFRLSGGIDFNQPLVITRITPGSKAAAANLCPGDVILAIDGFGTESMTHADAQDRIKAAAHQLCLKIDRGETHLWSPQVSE

T9: PDZD11, Q5EBL8
T9 sequence (Q5EBL8 42-139, limits assumed, looked up): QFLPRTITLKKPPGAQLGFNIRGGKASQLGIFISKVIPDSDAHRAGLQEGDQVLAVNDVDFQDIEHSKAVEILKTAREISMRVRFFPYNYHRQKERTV

T10: PDZD2_1, O15018
T10 sequence (O15018 80-192, limits assumed, looked up): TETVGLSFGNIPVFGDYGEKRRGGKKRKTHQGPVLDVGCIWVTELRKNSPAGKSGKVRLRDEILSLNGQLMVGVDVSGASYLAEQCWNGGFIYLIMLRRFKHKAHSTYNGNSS

T11: PDZRN3_2, Q9UPQ7
T11 sequence (Q9UPQ7 414-513, limits assumed, looked up): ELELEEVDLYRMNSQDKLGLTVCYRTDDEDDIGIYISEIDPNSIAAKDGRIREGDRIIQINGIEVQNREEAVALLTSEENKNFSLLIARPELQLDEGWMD

T12: SYNPO2L, Q9H987
T12 sequence (Q9H987 1-98, limits assumed, looked up): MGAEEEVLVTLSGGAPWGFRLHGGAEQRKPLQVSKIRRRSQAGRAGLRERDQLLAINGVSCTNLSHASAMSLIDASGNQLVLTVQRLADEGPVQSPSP

T13: USH1C_1, Q9Y6N9
T13 sequence (Q9Y6N9 82-179, limits assumed, looked up): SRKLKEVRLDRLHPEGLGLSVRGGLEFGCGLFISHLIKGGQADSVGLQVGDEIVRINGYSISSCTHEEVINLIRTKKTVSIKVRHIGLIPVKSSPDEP

T14: USH1C_3, Q9Y6N9
T14 sequence (Q9Y6N9 447-547, limits assumed, looked up): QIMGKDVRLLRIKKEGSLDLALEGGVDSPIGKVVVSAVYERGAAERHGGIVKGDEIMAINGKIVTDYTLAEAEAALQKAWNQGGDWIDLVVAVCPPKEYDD

B1: ASIC3, Q9UHC3 (peptide)
chain: HRTCYLVTQL
B2: HPV51-E6, P26554 (peptide)
chain: RTRQRNETQV

Key:
Test in all cases: holdup assay
Design in all cases: key: below the threshold = too weak to quantify, mostly under pKd 3.1 to 4
Conditions in all cases: plain residues with an end cap or a label only (N-terminal biotin on a linker: ttds)
CNKSR3, Q6P9H4 = target: CNKSR3, Q6P9H4
DFNB31_2, Q9P202 = target: T1, DFNB31_2, Q9P202
DVL2, O14641 = target: DVL2, O14641
Inadl_7, Q8NI35 = target: Inadl_7, Q8NI35
LIN7C, Q9NUP9 = target: T2, LIN7C, Q9NUP9
MAGI3_4, Q5TCQ9 = target: MAGI3_4, Q5TCQ9
MAGI3_6, Q5TCQ9 = target: MAGI3_6, Q5TCQ9
MPDZ_3, O75970 = target: T3, MPDZ_3, O75970
MPDZ_7, O75970 = target: T4, MPDZ_7, O75970
MPP5, Q8N3R9 = target: T5, MPP5, Q8N3R9
NHERF2_1, Q15599 = target: NHERF2_1, Q15599
NHERF3_2, Q5T2W1 = target: T6, NHERF3_2, Q5T2W1
PARD6G, Q9BYG4 = target: T7, PARD6G, Q9BYG4
PDLIM3, Q53GG5 = target: T8, PDLIM3, Q53GG5
PDZD11, Q5EBL8 = target: T9, PDZD11, Q5EBL8
PDZD2_1, O15018 = target: T10, PDZD2_1, O15018
PDZRN3_2, Q9UPQ7 = target: T11, PDZRN3_2, Q9UPQ7
PDZRN4_2, Q6ZMN7 = target: PDZRN4_2, Q6ZMN7
PTPN13_2, Q12923 = target: PTPN13_2, Q12923
RIMS2, Q9UQ26 = target: RIMS2, Q9UQ26
SYNPO2L, Q9H987 = target: T12, SYNPO2L, Q9H987
USH1C_1, Q9Y6N9 = target: T13, USH1C_1, Q9Y6N9
USH1C_3, Q9Y6N9 = target: T14, USH1C_3, Q9Y6N9

MAGI3_4, Q5TCQ9, sequence (Q5TCQ9 716-815): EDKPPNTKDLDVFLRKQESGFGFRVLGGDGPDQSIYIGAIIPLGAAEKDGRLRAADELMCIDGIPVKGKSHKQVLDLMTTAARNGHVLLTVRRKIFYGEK
Inadl_7, Q8NI35, sequence (Q8NI35 1219-1332): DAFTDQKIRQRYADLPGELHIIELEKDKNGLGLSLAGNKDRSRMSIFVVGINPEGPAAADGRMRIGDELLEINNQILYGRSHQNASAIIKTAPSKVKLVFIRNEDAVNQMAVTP
MAGI3_6, Q5TCQ9, sequence (Q5TCQ9 1014-1103): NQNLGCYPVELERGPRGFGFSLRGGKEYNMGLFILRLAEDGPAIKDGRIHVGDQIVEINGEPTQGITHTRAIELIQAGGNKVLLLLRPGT
DVL2, O14641, sequence (O14641 260-359): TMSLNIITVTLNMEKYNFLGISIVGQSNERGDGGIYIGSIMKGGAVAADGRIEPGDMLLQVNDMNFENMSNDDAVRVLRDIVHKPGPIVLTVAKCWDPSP
RIMS2, Q9UQ26, sequence (Q9UQ26 637-758): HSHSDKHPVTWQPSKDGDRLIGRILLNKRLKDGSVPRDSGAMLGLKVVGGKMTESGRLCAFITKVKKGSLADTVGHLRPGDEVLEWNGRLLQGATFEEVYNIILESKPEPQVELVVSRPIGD
CNKSR3, Q6P9H4, sequence (Q6P9H4 203-303): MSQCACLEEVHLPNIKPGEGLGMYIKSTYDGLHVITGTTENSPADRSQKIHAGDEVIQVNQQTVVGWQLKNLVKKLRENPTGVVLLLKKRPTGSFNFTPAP
NHERF2_1, Q15599, sequence (Q15599 9-91): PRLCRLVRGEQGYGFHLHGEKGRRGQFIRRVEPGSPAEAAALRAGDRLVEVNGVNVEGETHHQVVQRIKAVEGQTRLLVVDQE
PDZRN4_2, Q6ZMN7, sequence (Q6ZMN7 389-498): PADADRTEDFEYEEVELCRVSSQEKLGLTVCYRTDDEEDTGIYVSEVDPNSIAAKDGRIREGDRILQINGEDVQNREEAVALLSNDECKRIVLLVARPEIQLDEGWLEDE
PTPN13_2, Q12923, sequence (Q12923 1363-1462): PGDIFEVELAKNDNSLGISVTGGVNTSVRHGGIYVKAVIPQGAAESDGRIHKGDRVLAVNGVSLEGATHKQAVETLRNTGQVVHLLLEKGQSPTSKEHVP

Binder | pKd (CNKSR3, Q6P9H4) | pKd (DFNB31_2, Q9P202) | pKd (DVL2, O14641) | pKd (Inadl_7, Q8NI35) | pKd (LIN7C, Q9NUP9) | pKd (MAGI3_4, Q5TCQ9) | pKd (MAGI3_6, Q5TCQ9) | pKd (MPDZ_3, O75970) | pKd (MPDZ_7, O75970) | pKd (MPP5, Q8N3R9) | pKd (NHERF2_1, Q15599) | pKd (NHERF3_2, Q5T2W1) | pKd (PARD6G, Q9BYG4) | pKd (PDLIM3, Q53GG5) | pKd (PDZD11, Q5EBL8) | pKd (PDZD2_1, O15018) | pKd (PDZRN3_2, Q9UPQ7) | pKd (PDZRN4_2, Q6ZMN7) | pKd (PTPN13_2, Q12923) | pKd (RIMS2, Q9UQ26) | other results
B1 | below the threshold | below the threshold | below the threshold | 4.05 | 3.41 | below the threshold | below the threshold | 4.04 | 4.73 | below the threshold | 4.56 | 4.33 | below the threshold | below the threshold | below the threshold | below the threshold | below the threshold | below the threshold | below the threshold | below the threshold | pKd (SYNPO2L, Q9H987): below the threshold; pKd (USH1C_1, Q9Y6N9): below the threshold; pKd (USH1C_3, Q9Y6N9): below the threshold
B2 | below the threshold | below the threshold | 4.59 | below the threshold | 3.84 | below the threshold | below the threshold | below the threshold | below the threshold | below the threshold | below the threshold | below the threshold | below the threshold | below the threshold | below the threshold | below the threshold | 4.16 | below the threshold | below the threshold | below the threshold | pKd (SYNPO2L, Q9H987): below the threshold; pKd (USH1C_1, Q9Y6N9): below the threshold; pKd (USH1C_3, Q9Y6N9): 4.16
